Biological target: ribosomal protein bL12 (E. coli (endogenous in ribosomes of strain MRE600)) (UniProt P0A7K2)
UniProt P0A7K2, sequence (P0A7K2 whole entry): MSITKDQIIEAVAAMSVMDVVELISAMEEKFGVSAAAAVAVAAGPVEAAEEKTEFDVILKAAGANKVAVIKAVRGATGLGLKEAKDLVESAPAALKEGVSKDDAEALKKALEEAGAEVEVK

apparent affinity of RF1 for pre-hydrolysis complexes (PreHC, 0.01 uM) prepared with bL12-depleted (∆bL12) ribosomes, from peptide hydrolysis (10 s, 37 °C): 210 nM
apparent affinity of RF1 for pre-hydrolysis complexes (PreHC, 0.01 uM) prepared with wild-type ribosomes bearing bL12, from peptide hydrolysis (10 s, 37 °C): 9 nM
Substance: RF1 (wild type) (from UniProt P0A7I0 1-360) (natural protein)

From PMC6076264
